B1: R0862, hIgG1 antibody containing an L234A/L235A mutation (antibody, V domains shown)
VH: QVQLVESGGGVVQPGRSLRLSCAASGFTFSSYGMHWVRQAPGKGLEWVAAIWYDGSNKYYTDSVKGRFTISRDNSKNTLYLQMNSLRAEDTAVYYCARDLRGVMYFDLWGRGTLVTVSS
VL: EIVLTQSPATLSLSPGERATLSCRASQSVSRYLAWYQQKPGQAPRLLIYDASNRATGIPARFSGSGSGTDFTLTISSLEPEDFAVYYCQLRNNWPLTFGGGTKVEIKR
notes: Isotype control; also called ISO-hIgG1.8; copies: 2 + 2
B2: anti-PD1 antibody R1152 (antibody, human IgG1, kappa, L234A L235A, V domains shown)
VH: QVQLVQSGAEVKKPGASVKVSCKASGYTFTTYYMYWVRQAPGQGLEWMGGINPSNGGTNYAQKFQGRATMTVDTSTSTAYMELSSLRSEDTAVYYCTRRDSNYDGGFDYWGQGTTVTVSS
VL: DIQMTQSPSSLSASVGDRVTITCRASKSVSTSGYSYMHWYQQKPGKAPKLLIYLAYHLESGVPSRFSGSGSGTDFTLTISSLQPEDFATYYCQHSWELPITFGQGTKLEIKR
notes: also called PD1 monoclonal antibody R1152; PD-1 parent antibody

How the values were obtained:
[1] = molecular target: T1, mouse PD-1 (mouse, UniProt Q02242 25-288); test: FACS on CHO/mouse PD-1 cells
T1 construct: whole, on cells; also called CHO/mouse PD-1
T1 sequence (looked up): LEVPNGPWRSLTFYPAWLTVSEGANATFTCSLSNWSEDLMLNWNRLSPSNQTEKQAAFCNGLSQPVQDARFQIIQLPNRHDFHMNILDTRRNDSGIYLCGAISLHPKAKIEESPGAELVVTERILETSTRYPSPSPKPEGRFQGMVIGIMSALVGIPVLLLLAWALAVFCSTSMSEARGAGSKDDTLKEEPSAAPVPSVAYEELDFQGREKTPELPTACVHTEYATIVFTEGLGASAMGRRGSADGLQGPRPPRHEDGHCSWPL

[2] = molecular target: T2, human PD1 (human, UniProt Q15116 25-288); test: FACS on CHO/human PD-1 cells
T2 construct: whole, on cells; also called hPD1; CHO-hPD1

[3] = molecular target: T3, mouse IL10R1 (mouse, UniProt Q61727 17-575); test: FACS on CHO/mouse IL10R1 cells
T3 construct: whole, on cells; also called CHO/mouse IL10R1
T3 sequence (looked up): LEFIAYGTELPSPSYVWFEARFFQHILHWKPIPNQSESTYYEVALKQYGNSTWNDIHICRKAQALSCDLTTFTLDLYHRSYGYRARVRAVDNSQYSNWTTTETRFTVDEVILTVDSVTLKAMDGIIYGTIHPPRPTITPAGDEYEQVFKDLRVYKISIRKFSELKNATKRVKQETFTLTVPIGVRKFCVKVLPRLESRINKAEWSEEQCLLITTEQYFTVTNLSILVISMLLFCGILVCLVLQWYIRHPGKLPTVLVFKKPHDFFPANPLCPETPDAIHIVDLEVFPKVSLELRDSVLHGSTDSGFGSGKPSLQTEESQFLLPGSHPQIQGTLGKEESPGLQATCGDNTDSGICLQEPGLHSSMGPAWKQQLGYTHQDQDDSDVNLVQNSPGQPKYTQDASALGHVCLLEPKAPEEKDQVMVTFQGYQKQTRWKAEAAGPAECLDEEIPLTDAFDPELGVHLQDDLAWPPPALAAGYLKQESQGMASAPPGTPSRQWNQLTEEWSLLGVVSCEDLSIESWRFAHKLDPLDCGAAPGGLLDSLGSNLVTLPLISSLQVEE

[4] = molecular target: T4, cyno IL10R1 (cyno, UniProt A0A2K5WJ66 22-576); test: FACS on CHO/cyno IL10R1 cells
T4 construct: whole, on cells; also called CHO/cyno IL10R1; monkey IL10R1
T4 sequence: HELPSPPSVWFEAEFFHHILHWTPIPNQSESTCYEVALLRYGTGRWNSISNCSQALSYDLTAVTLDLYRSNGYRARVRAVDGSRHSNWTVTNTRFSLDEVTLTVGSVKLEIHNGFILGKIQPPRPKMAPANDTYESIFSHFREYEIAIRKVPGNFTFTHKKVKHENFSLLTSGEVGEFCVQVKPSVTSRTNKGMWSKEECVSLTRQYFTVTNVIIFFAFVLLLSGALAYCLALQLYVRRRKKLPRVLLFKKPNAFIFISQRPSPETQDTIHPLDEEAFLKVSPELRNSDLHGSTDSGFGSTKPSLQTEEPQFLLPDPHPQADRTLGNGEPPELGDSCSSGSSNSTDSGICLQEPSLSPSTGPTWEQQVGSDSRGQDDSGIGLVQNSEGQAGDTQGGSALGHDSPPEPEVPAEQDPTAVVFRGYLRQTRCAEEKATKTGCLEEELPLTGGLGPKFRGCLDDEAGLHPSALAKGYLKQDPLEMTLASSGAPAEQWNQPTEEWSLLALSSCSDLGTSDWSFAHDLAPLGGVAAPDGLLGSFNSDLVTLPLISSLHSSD

[5] = molecular target: T5, human IL10R1 (human, UniProt Q13651 22-578); test: FACS on CHO/human IL10R1 cells
T5 construct: whole, on cells; also called CHO/human IL10R1
T5 sequence (looked up): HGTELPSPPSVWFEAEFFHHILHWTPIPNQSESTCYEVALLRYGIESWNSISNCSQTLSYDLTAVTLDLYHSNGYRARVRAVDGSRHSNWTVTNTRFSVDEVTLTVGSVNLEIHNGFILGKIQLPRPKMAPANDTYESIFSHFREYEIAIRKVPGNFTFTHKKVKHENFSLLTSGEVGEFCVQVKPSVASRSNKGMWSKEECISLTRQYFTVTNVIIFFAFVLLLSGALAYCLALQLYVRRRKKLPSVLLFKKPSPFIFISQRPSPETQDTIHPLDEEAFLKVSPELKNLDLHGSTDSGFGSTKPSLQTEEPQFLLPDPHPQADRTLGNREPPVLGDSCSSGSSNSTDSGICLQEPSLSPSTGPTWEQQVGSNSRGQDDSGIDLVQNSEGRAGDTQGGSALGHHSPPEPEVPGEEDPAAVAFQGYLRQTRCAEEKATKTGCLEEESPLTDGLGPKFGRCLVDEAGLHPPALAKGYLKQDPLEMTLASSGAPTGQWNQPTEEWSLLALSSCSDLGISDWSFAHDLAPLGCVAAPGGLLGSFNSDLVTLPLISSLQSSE

[6] = molecular target: T6, cyno PD-1 (cyno, UniProt B0LAJ3 25-288); test: FACS on CHO/cyno PD-1 cells
T6 construct: also called CHO/cyno PD-1; monkey PD-1

[7] = molecular target: T2, human PD1; test: FACS binding on CHO/human PD-1 cells (Example 12)
[8] = molecular target: T2, human PD1; test: cell-based or functional assay
[9] = molecular target: T2, human PD1; test: FACS: blocking of human PD-L1-mFC (1 µg/mL) binding to CHO/human PD-1 cells

T2 sequence (Q15116 25-288): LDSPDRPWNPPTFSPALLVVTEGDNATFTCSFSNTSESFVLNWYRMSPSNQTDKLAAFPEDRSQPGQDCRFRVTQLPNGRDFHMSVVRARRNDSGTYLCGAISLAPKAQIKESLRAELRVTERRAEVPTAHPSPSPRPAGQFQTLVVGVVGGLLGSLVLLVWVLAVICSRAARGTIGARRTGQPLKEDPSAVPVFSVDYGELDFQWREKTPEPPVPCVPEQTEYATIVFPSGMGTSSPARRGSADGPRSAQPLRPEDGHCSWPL
T6 sequence (B0LAJ3 entry or part of it limits assumed, form in doubt): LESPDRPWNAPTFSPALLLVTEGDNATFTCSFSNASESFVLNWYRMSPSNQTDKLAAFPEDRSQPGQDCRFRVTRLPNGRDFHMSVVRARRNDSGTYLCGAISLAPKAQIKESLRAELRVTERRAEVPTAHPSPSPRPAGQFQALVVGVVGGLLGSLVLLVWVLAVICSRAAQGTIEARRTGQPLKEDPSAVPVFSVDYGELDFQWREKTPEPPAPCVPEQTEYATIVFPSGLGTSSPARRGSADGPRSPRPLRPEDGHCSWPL

Row | Binder | binding result [1] | binding result [2] | binding result [3] | binding result [4] | binding result [5] | EC50 [6] [nM] | EC50 [7] [nM] | EC50 [2] [nM] | EC50 of luciferase reporter gene activity (CHO-OKT3-hPD-L1 cells + Jurkat-NFAT-luc-hPD-1 cells) [8] [nM] | IC50 [9] [nM]
1 | B1 | no binding | no binding | no binding | no binding | no binding | – | – | – | – | –
2 | B2 | no binding | – | – | – | – | 3.47 | 7.75 | 5.47 | 6.84 | 8.34

Reference: patent publication EP4786499A1 (Guangdong Fapon Biopharma Inc., dated 2026)
